Two proteins from patent publication US20220017960 can be followed below.

The data set concerns the target FLAG-tagged TRIM25, Q14258.

Numbering of substitutions follows the chain as printed. Numbers in names are those of the source.

Sequence of FLAG-tagged TRIM25, Q14258 (Q14258 whole entry): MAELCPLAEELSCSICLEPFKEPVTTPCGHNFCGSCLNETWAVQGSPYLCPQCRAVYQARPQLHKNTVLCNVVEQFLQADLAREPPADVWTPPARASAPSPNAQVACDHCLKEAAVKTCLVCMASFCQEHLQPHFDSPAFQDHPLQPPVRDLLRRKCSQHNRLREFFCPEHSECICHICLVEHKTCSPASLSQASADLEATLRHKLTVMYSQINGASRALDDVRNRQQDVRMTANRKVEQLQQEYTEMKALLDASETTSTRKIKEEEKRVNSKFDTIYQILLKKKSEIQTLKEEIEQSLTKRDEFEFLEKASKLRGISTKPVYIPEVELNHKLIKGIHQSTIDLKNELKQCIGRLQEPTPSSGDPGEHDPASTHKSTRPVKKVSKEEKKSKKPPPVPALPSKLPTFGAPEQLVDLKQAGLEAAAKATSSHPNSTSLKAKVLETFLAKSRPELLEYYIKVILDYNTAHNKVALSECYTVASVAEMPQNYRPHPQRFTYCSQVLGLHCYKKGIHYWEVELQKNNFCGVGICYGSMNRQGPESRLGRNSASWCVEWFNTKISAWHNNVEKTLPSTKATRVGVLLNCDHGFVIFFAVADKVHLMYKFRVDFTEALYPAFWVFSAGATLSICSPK

B1: Xpress (Xpr)-tagged human USP15 wild type (WT) (protein)
chain: AEGGAADLDTQRSDIATLLKTSLRKGDTWYLVDSRWFKQWKKYVGFDSWDKYQMGDQNVYPGPIDNSGLLKDGDAQSLKEHLIDELDYILLPTEGWNKLVSWYTLMEGQEPIARKVVEQGMFVKHCKVEVYLTELKLCENGNMNNVVTRRFSKADTIDTIEKEIRKIFSIPDEKETRLWNKYMSNTFEPLNKPDSTIQDAGLYQGQVLVIEQKNEDGTWPRGPSTPNVKNSNYCLPSYTAYKNYDYSEPGRNNEQPGLCGLSNLGNTCFMNSAIQCLSNTPPLTEYFLNDKYQEELNFDNPLGMRGEIAKSYAELIKQMWSGKFSYVTPRAFKTQVGRFAPQFSGYQQQDCQELLAFLLDGLHEDLNRIRKKPYIQLKDADGRPDKVVAEEAWENHLKRNDSIIVDIFHGLFKSTLVCPECAKISVTFDPFCYLTLPLPMKKERTLEVYLVRMDPLTKPMQYKVVVPKIGNILDLCTALSALSGIPADKMIVTDIYNHRFHRIFAMDENLSSIMERDDIYVFEININRTEDTEHVIIPVCLREKFRHSSYTHHTGSSLFGQPFLMAVPRNNTEDKLYNLLLLRMCRYVKISTETEETEGSLHCCKDQNINGNGPNGIHEEGSPSEMETDEPDDESSQDQELPSENENSQSEDSVGGDNDSENGLCTEDTCKGQLTGHKKRLFTFQFNNLGNTDINYIKDDTRHIRFDDRQLRLDERSFLALDWDPDLKKRYFDENAAEDFEKHESVEYKPPKKPFVKLKDCIELFTTKEKLGAEDPWYCPNCKEHQQATKKLDLWSLPPVLVVHLKRFSYSRYMRDKLDTLVDFPINDLDMSEFLINPNAGPCRYNLIAVSNHYGGMGGGHYTAFAKNKDDGKWYYFDDSSVSTASEDQIVSKAAYVLFYQRQDTFSGTGFFPLDRETKGASAATGIPLESDEDSNDNDNDIENENCMHTN
As to B1, the “deubiquitination of TRIM25 (anti-FLAG immunoprecipitation, immunoblot with anti-ubiquitin and anti-TRIM25 antibodies)” value was “we observed that TRIM25 is a target for deubiquitination by USP15”.

B2: Xpress (Xpr)-tagged human USP15 mutant (L720R) (protein)
chain: B1 chain with L719R
B2: the “deubiquitinase activity towards TRIM25 (anti-FLAG immunoprecipitation, immunoblot with anti-ubiquitin and anti-TRIM25 antibodies)” value is listed as “we observed a reduced deubiquitinase activity in the L749R variant (the corresponding human L720R isoform was tested), when compared to WT”.
